Protein stability index data for 94 variants are collected here from the supplement of paper PMC10567573.

B1: ZNF263 (parent)
chain: RTHTGEKPYKCTLCGENFSHRSNL
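Note: lentivirally expressed fusions sorted by FACS into six bins by GFP to DsRed ratio, PSI derived from sequencing read proportions per bin multiplied by bin number.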

This series covers variants of B1. Kind of series: protein stability index of a GFP-peptide fusion (GPS, HEK-293T) (PSI 1-6); higher = more stable. Particulars: c terminus: a fixed tail appended.
As to VTHTGEKPYKCTLCGENFSHRSNL [R1V], the protein stability index was determined as 2.27.
In the case of QTHTGEKPYKCTLCGENFSHRSNL [R1Q], the protein stability index was 1.79.
The value for PTHTGEKPYKCTLCGENFSHRSNL [R1P] was 1.98; that for GTHTGEKPYKCTLCGENFSHRSNL [R1G] was 1.8.
On to NTHTGEKPYKCTLCGENFSHRSNL [R1N], for which the protein stability index is 1.69.
For the variant WTHTGEKPYKCTLCGENFSHRSNL [R1W], the protein stability index is 1.99.
To KTHTGEKPYKCTLCGENFSHRSNL [R1K] belongs 2.22.
The value for YTHTGEKPYKCTLCGENFSHRSNL [R1Y] was 2.17.
As to DTHTGEKPYKCTLCGENFSHRSNL [R1D], the protein stability index worked out at 1.93.
Turning to ITHTGEKPYKCTLCGENFSHRSNL [R1I], the protein stability index is 2.12.
Regarding TTHTGEKPYKCTLCGENFSHRSNL [R1T], the protein stability index was determined as 1.99.
The value for HTHTGEKPYKCTLCGENFSHRSNL [R1H] was 3.08; that for FTHTGEKPYKCTLCGENFSHRSNL [R1F] was 2.41; that for STHTGEKPYKCTLCGENFSHRSNL [R1S] was 1.89.
ETHTGEKPYKCTLCGENFSHRSNL [R1E]: the protein stability index worked out at 2.13.
As to LTHTGEKPYKCTLCGENFSHRSNL [R1L], the protein stability index came out at 2.39.
In the case of MTHTGEKPYKCTLCGENFSHRSNL [R1M], the protein stability index was 1.38.
As to CTHTGEKPYKCTLCGENFSHRSNL [R1C], the protein stability index was found to be 3.43.
Take ATHTGEKPYKCTLCGENFSHRSNL [R1A]: the protein stability index is 2.03.
In the case of RTHTKEKPYKCTLCGENFSHRSNL [G5K], the protein stability index came out at 2.37.
In the case of RTHTMEKPYKCTLCGENFSHRSNL [G5M], the protein stability index stood at 2.13.
The value for RTHTLEKPYKCTLCGENFSHRSNL [G5L] was 1.88.
For RTHTSEKPYKCTLCGENFSHRSNL [G5S], the protein stability index was found to be 1.7.
To RTHTNEKPYKCTLCGENFSHRSNL [G5N] belongs 2.3; to RTHTIEKPYKCTLCGENFSHRSNL [G5I], 2.06; to RTHTYEKPYKCTLCGENFSHRSNL [G5Y], 1.63.
Take RTHTWEKPYKCTLCGENFSHRSNL [G5W]: the protein stability index is 2.4.
For RTHTREKPYKCTLCGENFSHRSNL [G5R], the protein stability index came out at 2.2.
With RTHTVEKPYKCTLCGENFSHRSNL [G5V], the protein stability index was determined as 1.83.
On to RTHTTEKPYKCTLCGENFSHRSNL [G5T], for which the protein stability index came out at 2.24.
As for RTHTQEKPYKCTLCGENFSHRSNL [G5Q], the protein stability index turned out to be 2.46.
The value for RTHTPEKPYKCTLCGENFSHRSNL [G5P] was 1.88; that for RTHTDEKPYKCTLCGENFSHRSNL [G5D] was 2.05.
On to RTHTFEKPYKCTLCGENFSHRSNL [G5F], for which the protein stability index turned out to be 1.86.
To RTHTEEKPYKCTLCGENFSHRSNL [G5E] belongs 2.46.
The value for RTHTHEKPYKCTLCGENFSHRSNL [G5H] was 2.22; that for RTHTCEKPYKCTLCGENFSHRSNL [G5C] was 3.14.
To RTHTAEKPYKCTLCGENFSHRSNL [G5A] belongs 1.59; to RPHTGEKPYKCTLCGENFSHRSNL [T2P], 2.34.
RRHTGEKPYKCTLCGENFSHRSNL [T2R]: the protein stability index was determined as 3.06.
On to RSHTGEKPYKCTLCGENFSHRSNL [T2S], for which the protein stability index was 2.1.
To RCHTGEKPYKCTLCGENFSHRSNL [T2C] belongs 2.07; to REHTGEKPYKCTLCGENFSHRSNL [T2E], 1.76.
As to RLHTGEKPYKCTLCGENFSHRSNL [T2L], the protein stability index came out at 2.17.
Consider RMHTGEKPYKCTLCGENFSHRSNL [T2M], for which the protein stability index was found to be 1.97.
As to RHHTGEKPYKCTLCGENFSHRSNL [T2H], the protein stability index was 2.21.
For the variant RQHTGEKPYKCTLCGENFSHRSNL [T2Q], the protein stability index was found to be 2.02.
The value for RFHTGEKPYKCTLCGENFSHRSNL [T2F] was 1.73.
Take RGHTGEKPYKCTLCGENFSHRSNL [T2G]: the protein stability index was found to be 1.74.
RVHTGEKPYKCTLCGENFSHRSNL [T2V]: the protein stability index stood at 2.52.
With RYHTGEKPYKCTLCGENFSHRSNL [T2Y], the protein stability index was 1.45.
As for RKHTGEKPYKCTLCGENFSHRSNL [T2K], the protein stability index was found to be 2.7.
On to RIHTGEKPYKCTLCGENFSHRSNL [T2I], for which the protein stability index worked out at 1.98.
In the case of RDHTGEKPYKCTLCGENFSHRSNL [T2D], the protein stability index stood at 2.
On to RAHTGEKPYKCTLCGENFSHRSNL [T2A], for which the protein stability index came to 2.02.
As for RNHTGEKPYKCTLCGENFSHRSNL [T2N], the protein stability index was 2.28.
For the variant RWHTGEKPYKCTLCGENFSHRSNL [T2W], the protein stability index is 2.35.
Take RTCTGEKPYKCTLCGENFSHRSNL [H3C]: the protein stability index is 1.61.
The value for RTRTGEKPYKCTLCGENFSHRSNL [H3R] was 2.58; that for RTITGEKPYKCTLCGENFSHRSNL [H3I] was 2.58; that for RTTTGEKPYKCTLCGENFSHRSNL [H3T] was 1.93.
The value for RTNTGEKPYKCTLCGENFSHRSNL [H3N] was 1.97.
To RTDTGEKPYKCTLCGENFSHRSNL [H3D] belongs 2.06; to RTPTGEKPYKCTLCGENFSHRSNL [H3P], 2.
As for RTQTGEKPYKCTLCGENFSHRSNL [H3Q], the protein stability index stood at 2.31.
The value for RTETGEKPYKCTLCGENFSHRSNL [H3E] was 1.74.
With RTYTGEKPYKCTLCGENFSHRSNL [H3Y], the protein stability index is 1.93.
To RTLTGEKPYKCTLCGENFSHRSNL [H3L] belongs 2.35.
In the case of RTFTGEKPYKCTLCGENFSHRSNL [H3F], the protein stability index is 2.15.
Take RTKTGEKPYKCTLCGENFSHRSNL [H3K]: the protein stability index is 2.05.
With RTSTGEKPYKCTLCGENFSHRSNL [H3S], the protein stability index is 2.18.
To RTWTGEKPYKCTLCGENFSHRSNL [H3W] belongs 1.41; to RTMTGEKPYKCTLCGENFSHRSNL [H3M], 2.19; to RTGTGEKPYKCTLCGENFSHRSNL [H3G], 1.93.
To RTVTGEKPYKCTLCGENFSHRSNL [H3V] belongs 1.85; to RTATGEKPYKCTLCGENFSHRSNL [H3A], 2.27; to RTHWGEKPYKCTLCGENFSHRSNL [T4W], 1.75.
As to RTHDGEKPYKCTLCGENFSHRSNL [T4D], the protein stability index was 1.87.
Consider RTHPGEKPYKCTLCGENFSHRSNL [T4P], for which the protein stability index turned out to be 2.34.
Take RTHVGEKPYKCTLCGENFSHRSNL [T4V]: the protein stability index came to 1.69.
In the case of RTHMGEKPYKCTLCGENFSHRSNL [T4M], the protein stability index worked out at 2.1.
For RTHEGEKPYKCTLCGENFSHRSNL [T4E], the protein stability index was determined as 2.77.
As to RTHRGEKPYKCTLCGENFSHRSNL [T4R], the protein stability index was found to be 3.78.
RTHSGEKPYKCTLCGENFSHRSNL [T4S]: the protein stability index worked out at 2.03.
Regarding RTHFGEKPYKCTLCGENFSHRSNL [T4F], the protein stability index was found to be 2.05.
On to RTHIGEKPYKCTLCGENFSHRSNL [T4I], for which the protein stability index was determined as 1.82.
To RTHGGEKPYKCTLCGENFSHRSNL [T4G] belongs 2.02.
As for RTHAGEKPYKCTLCGENFSHRSNL [T4A], the protein stability index worked out at 2.47.
Regarding RTHQGEKPYKCTLCGENFSHRSNL [T4Q], the protein stability index amounted to 2.01.
RTHNGEKPYKCTLCGENFSHRSNL [T4N]: the protein stability index was found to be 2.1.
For the variant RTHYGEKPYKCTLCGENFSHRSNL [T4Y], the protein stability index is 2.43.
As for RTHKGEKPYKCTLCGENFSHRSNL [T4K], the protein stability index stood at 2.43.
Consider RTHCGEKPYKCTLCGENFSHRSNL [T4C], for which the protein stability index is 2.04.
With RTHHGEKPYKCTLCGENFSHRSNL [T4H], the protein stability index came to 1.91.
